By pKa is commonly meant the pH at which an ionisable group is half protonated. The low end stands for a group that gives up its proton readily, the high end for a group that holds its proton tightly.

In this data set the target is Glu148 (UniProt position 148, MVLGREGPTVQ). Nature of the data set: kinetics. The note with it: membrane-reconstituted, turning over in Cl-/36Cl- exchange (Cl- present).
Consider “CLC-ec1 (H+/Cl- exchange transporter ClcA), wild type (Escherichia coli)”, for which the pKa amounted to 6.2±0.1. On to CLC-ec1 Y445L (Escherichia coli; Y445L), for which the pKa was 4.7±0.1.

In turn, CLC-ec1 E203Q (Escherichia coli; E203Q) showed a pKa of 6.2±0.5.
